{"source": "patent US20260217800A1", "target": "full length gp41 HIV protein (Abcam) (human immunodeficiency virus-1 (HIV-1))", "assay": "titration ELISA, wells coated with 1 µg/mL antigen, 2F5 in 4-fold dilutions from 30 µg/mL"}
{"substance": "2F5 broadly neutralizing human monoclonal antibody", "values": [{"measurement": "EC50 (read off the curve)", "result": 0.1, "unit": "µg/mL"}]}
